Test: soluble on expression in E. coli; label from the status in PepcDB or PDB records

Soluble on expression in E. coli, not soluble:
MGSDKIHHHHHHAVDAKLLEMLRANGSINQAQYNELQGDLAKETKEKADQKAQSERMSSFEQKVAWAAKTQIKGDVRLRYEDVNVDDPNSSSGNQDRQRVRARVGFYSEINPQVDAGVRIATGSSADRRSTNQSFDNYFDKKSLWVDLAYLDWHPTAVPNLHLIGGKMQQPWVSMGDIIWDSDINPEGVAATYKADLGGAEVFASAGQYTLKDNVDGDGVQYKHDAQVYHGQLGAKFAPADVLKLTVGASIYGYDNDKEAAILQSFGNTTNEFNLVEGFGQIDFTGLAIPLSAYGQYVKNTDSTDGEDQAWLAGLKTKMGAWSLDYNYRDVQRNAVVSLFTDSDFGNGYTGSRGHKFKVGYEIDKNFSLGAAYLMAKTDLSQLPNSNADVDTLQVDLEAKF, MGSDKIHHHHHHAYGILGVLAITKDEAVLVAVTGVLSVGQLYGADILKITNVEFISLRTFGSVENVDSRIIDLQRQFIDLKKMFEKIIKKILKNLQRLLSSQMFYFSSLQSYDLTRSAQHRDSHDCSDARFFWNRSLHFSFQRYGIDTDNWLLKCMAGSVLVRVVYVGANTGRVALISRLSCERVGTRFNVRGANYLGNVANFVETEQLLLFDEKECSLLQIRGSIPLFWEQPGVNVGSHKVKLRAFETSLPAYHRHLSQLQHRYGEFAIVNLLGRKEGERVLGDAFKTQHKSSHFAPLVDFIDFDYHAQMKISKEAI, MGSDKIHHHHHHCLDVDIVDRVEKEDGFFKTEDHALAAINGVYSTLYAFAYHKTNWAIILPTYEDAMFSTGNAVPATVSNNTHSAGSAPVVNFWGELYNGIKNANEVIARVPSISFKSENDKNRIIAEAYFLRALYHYDLMRLYGGVNGIPIVIEPVTGIENAYVPQSPASKVYEQIISDFEYAAGLNDDDTPRLPKRLDPAYTSGRVTNGAAHAFLAEVYLTLGRWEDAAREAQEVISSEQYTFVNDYQNLWDIEQESLAQTEHIFSVPFFRDKDALADQSLGSNIAHLFNPAGVQVGGKLVSGNPYGKGAGAHRVQKWFIKYFQDDQGNLGYSDPSVDASIDESKLISKDYRIEVTFWRRFQQKNNNTGVLGNIVTVYPAAGGNSQENWGYIRKFIDPQGINNRTNENDMPRLRLSDMYLIRAEALNELGKYTEACQAIDMVRERARKANGTERAYPKYIGSDRPDNIGRTLTKQEFRWLVFMERGLEFAGEQKRWFDLIRMKYDENTQMYDYIKDTFIPSRPAADVQKQGVMAARKKYFPIPFAEVSRNDGVQQNPGY, MGSDKIHHHHHHDSFLDEKMYSSYGPEVSDVNAKLVGLHRQYAAIWGMSSQQGFVGCWQVGTDVGAPGDTQGVEVPFYRYQELNAENAGVSFLWEKLYELINSANQIIASQAEGGDAAATAEAMFFRAYAYNMLVTLWGDVPLVTESTSIPRTDYTRNAVAEVDGVIDSDLVYAMSNLPVVGAAKNESRINQDMARQLAGEAYLRMGMRDASYFKKAEDAVTPIITGGKYELISARYGKYAAEPGDYYHDMFRWGNQRRSQGNMEAIWTFEMEYNRDVNGGTIDNPQQRRNWVPAFHKLDGMVNADSIGGRGNGRLRISNFVKYGLYEKGDIRNSNYNIRRVMWYNKPGFSKEVGIDAKGFLVDKDKGIRNVTLKTGDQVIPHEGDSLNVFYPHPTKWGAYDETDDFGYAVVKDWPVMRLGETYLLRAEARFRQGNTQGAADDINVLRDRAFKDYRAVAPGAGKVTADQIDIDFILDERARELISEENRRMTLVRTNTLAERIKLNGDMEPAAPSNKVITGFDANIHTLLPIPLTEIQLNKDGDLKQNPGY, MGSDKIHHHHHHEADNYEPPKVDLKDQIPIILIHGSGGNASSLDKMADQLMNEYRSSNEALTMTVNSEGKIKFEGKLTKDAKRPIIKFGFEQNQATPDDWSKWLKIAMEDLKSRYGFTQMDGVGHSNGGLALTYYAEDYAGDKTVPTLRKLVAIGSPFNDLDPNDNGMDLSFKKLPNSTPQMDYFIKNQTEVSPDLEVLAIAGELSEDNPTDGIVPTISSLATRLFMPGSAKAYIEDIQVGEDAVHQTLHETPKSIEKTYWFLEKFKTDETVIQLDYK, MGSDKIHHHHHHEDDCATNPEPAGDVTEIKLSAGIQGVATRTPVSTNDNITAPFVASATTGDYTTNAWSSTVTFVASPTPTAALSFSPARYYPVDNSPIYIRGYYPAGTLSGKTVTLAGDGTEDVMLTAQASGTKATAGALSFVFNHLLTQLQFKLVAGAGYPASGVNVTSLVIKQQKTPATLDLNTSSLTYTTKDLTLSGTFPILTAGSTINNYPMVKSGEALTVAVTTSDGVTYPESTISVTTEVGKSHLITLTFTPKEITSSISVTAWQTGGTGSSTLQ
